Consider one sequence from paper PMC2834670.

This data set concerns the target T1, MleR (Streptococcus mutans UA159?) (UniProt Q8DWC9).
T1 sequence: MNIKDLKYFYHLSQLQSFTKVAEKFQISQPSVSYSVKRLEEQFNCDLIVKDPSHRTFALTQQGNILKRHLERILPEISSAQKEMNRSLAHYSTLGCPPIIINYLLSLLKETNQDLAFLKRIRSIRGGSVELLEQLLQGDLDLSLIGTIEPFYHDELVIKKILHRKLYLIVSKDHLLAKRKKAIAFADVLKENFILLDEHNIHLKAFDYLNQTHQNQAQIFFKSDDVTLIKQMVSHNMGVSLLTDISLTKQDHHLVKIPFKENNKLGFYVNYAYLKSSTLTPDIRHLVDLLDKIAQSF
Kind of data set: EMSA. To be noted: 20 mM Tris pH 7.5, 100 mM KCl, 2 mM EDTA, 10% glycerol, ~100 ng MleR, equal amount of competitor DNA (EP10/11 at 75 ng/ul), 20 min ambient temperature; 4.5% …. Background: A gel shift assay detects complexes by their altered migration in electrophoresis.

Turning to “GGTATCTTTGCGGCTATGGATATCACAGGTGAAAAATTGACTGATCAAGTCTATCTCTGTTACGGTGGCGGTACAGCAGGTGCGGGTATTGCCTCTCGTGTCTTGCGTGAAA (double strand) [internal mleS fragment (137qF/R)]”, the binding result was “no binding”.
